{"source": "paper PMC10616196", "about": "“A marine cryptochrome with an inverse photo-oligomerization mechanism” (Nature Communications, 2023)", "molecules": {"B1": {"name": "PdLCry^Y352A (natural protein)", "chain": "MKEKMSAWEVGNGIMEEKTDDWDNKEDNGKEHVSLHWFRHGLRLHDNPALLKSLEGAKEFYALFIWDGEVAGTKLVSYPRMKFLLECLKDLDDSLKKHGGRLYVVKGPSDVVIKQLIEEWGVTRVTCEIDPEPIWQPRDKAVKDLCATKGVKWFDYNSHLLWDPKAVCDANGGRPPHTYKLFCQVTDLLGKPETPHPDPDFSHVQMPVSDDFDDKFGLPTLKELGCEPECEEQEKPFNKWQGGETGALELLETRLMIERTAYKAGYIMPNQYIPDLVGPPRSMSPHLRFGALSIRKFYWDLHNNYAEVCGGEWLGALTAQLVWREYFYCMSYGNPSFDKMEGNPICLQIPWAKDEEALEKWKQGQTGFPWIDACMRQLRYEGWMHHVGRHAVACFLTRGDLWISWVDGLEAFYKYMLDGDWSVCAGNWMWVSSSAFENCLQCPQCFSPVLYGMRMDPTGEFTRRYVPQLKNMPLKYLFQPWKAPKEVQEKAGCVIGEDYPSPMVDHKEASSKCRRMMEDVKSIIKDPEVWHCTPSDTNEVRKFCWLPEHMTADQPCLGDLPCIKY", "modifications": "FAD bound; dimer in dark / FAD bound; dimer in dark"}, "B2": {"name": "PdLCry^Y352D (natural protein)", "chain": "B1 chain with A352D", "modifications": "FAD bound; dimer in dark / FAD bound; dimer in dark"}}, "key": {"PdLCry (L-CRY) [1]": {"target": "T1, PdLCry (L-CRY) (Platynereis dumerilii, UniProt Z9ZPX6J9J5, Y352D)", "T1 construct": "full length, N-terminal His6 tag, expressed in Sf9 insect cells (pCoofy27, baculovirus); 565 residues, model 31-556; homodimer in dark, monomer under blue light", "T1 sequence (Z9ZPX6J9J5 1-565 Y352D)": "B1 chain with A352D", "assay": "UV/Vis spectroscopy of FAD photoreduction", "format": "binding", "conditions": "naturalistic sunlight, on ice; pH 8.0; co-purified FAD"}, "PdLCry (L-CRY) [2]": {"target": "T2, PdLCry (L-CRY) (Platynereis dumerilii, UniProt Z9ZPX6J9J5)", "T2 construct": "full length, N-terminal His6 tag, expressed in Sf9 insect cells (pCoofy27, baculovirus); 565 residues, model 31-556; homodimer in dark, monomer under blue light", "T2 sequence (Z9ZPX6J9J5 1-565)": "B1 chain with A352Y", "assay": "cryo-EM structure of the complex, […] A", "format": "binding", "conditions": "dark state, far-red light; pH 8.0; homodimer; near stoichiometric FAD occupancy; non-covalent"}, "PdLCry (L-CRY) [3]": {"target": "T3, PdLCry (L-CRY) (Platynereis dumerilii, UniProt Z9ZPX6J9J5, Y352A)", "T3 construct": "full length, N-terminal His6 tag, expressed in Sf9 insect cells (pCoofy27, baculovirus); 565 residues, model 31-556; homodimer in dark, monomer under blue light", "T3 sequence (Z9ZPX6J9J5 1-565 Y352A)": "B1 chain", "assay": "UV/Vis spectroscopy of FAD photoreduction", "format": "binding", "conditions": "naturalistic sunlight, on ice; pH 8.0; co-purified FAD"}, "[4]": {"target": "Platynereis dumerilii L-CRY (PdLCry), wildtype (Platynereis dumerilii)", "assay": "cryo-EM structure; blue light state: grids illuminated for 30 s with a 455 nm LED, vitrified within less than 5 s; 0.7 mg mL^-1 in 25 mM Bis-tris propane pH 8.0, 150 mM NaCl, 1 mM TCEP; 2D classification, C1 map filtered to 8 Å"}, "[5]": {"target": "Platynereis dumerilii L-CRY (PdLCry), wildtype (Platynereis dumerilii)", "assay": "SEC; analytical SEC with inline UV/Vis, Superdex 200 Increase 5/150 GL, far-red light (dark) conditions; 7 µL at 5 mg mL^-1; 25 mM Bis-tris propane pH 8.0, 150 mM NaCl, 1 mM TCEP"}, "[6]": {"target": "Platynereis dumerilii L-CRY (PdLCry), wildtype (Platynereis dumerilii)", "assay": "cryo-EM structure; dark state: vitrified under far-red light; 0.7 mg mL^-1 in 25 mM Bis-tris propane pH 8.0, 150 mM NaCl, 1 mM TCEP, 0.01% fluorinated octyl maltoside; 2D classification and C2 refinement"}, "PdLCry^Y352A": {"target": "T4, PdLCry^Y352A (Platynereis dumerilii)", "T4 chain": "B1 chain", "assay": "SEC; final SEC step of the purification in dark or dim red light (Superdex S200 10/300 GL or HiLoad S200 16/60; 25 mM Bis-tris propane pH 8.0, 150 mM NaCl, 5% glycerol, 1 mM TCEP)", "conditions": "both partners purified"}, "PdLCry^Y352D": {"target": "T5, PdLCry^Y352D (Platynereis dumerilii)", "T5 chain": "B1 chain with A352D", "assay": "SEC; final SEC step of the purification in dark or dim red light (Superdex S200 10/300 GL or HiLoad S200 16/60; 25 mM Bis-tris propane pH 8.0, 150 mM NaCl, 5% glycerol, 1 mM TCEP)", "conditions": "both partners purified"}}, "note": "Changes are numbered by the printed parent chain.", "data": [{"molecule": "Cc1cc2nc3c(=O)[nH]c(=O)nc-3n(C[C@H](O)[C@H](O)[C@H](O)COP(=O)(O)OP(=O)(O)OC[C@H]3O[C@@H](n4cnc5c(N)ncnc54)[C@H](O)[C@@H]3O)c2cc1C", "note": "[flavin adenine dinucleotide]", "values": [{"measurement": "UV/Vis spectroscopy of FAD photoreduction", "setting": "PdLCry (L-CRY) [1]", "result": "both mutations lead to a less efficient FAD photoreduction under illumination conditions mimicking naturalistic sunlight"}, {"measurement": "cryo-EM structure of the complex, 2.6 A", "setting": "PdLCry (L-CRY) [2]", "result": "We observe a near stochiometric occupancy of the ligand FAD"}, {"measurement": "UV/Vis spectroscopy of FAD photoreduction", "setting": "PdLCry (L-CRY) [3]", "result": "both mutations lead to a less efficient FAD photoreduction under illumination conditions mimicking naturalistic sunlight"}]}, {"molecule": "Platynereis dumerilii L-CRY (PdLCry), wildtype (natural protein)", "values": [{"measurement": "percent of the protein monomeric", "setting": "[4]", "result": "> 90", "unit": "%"}, {"measurement": "stoichiometry N", "setting": "[5]", "result": 2}, {"measurement": "percent of the protein present as a dimer", "setting": "[6]", "result": 80, "unit": "%"}, {"measurement": "stoichiometry N", "setting": "[6]", "result": 2}]}, {"molecule": "B1", "values": [{"measurement": "stoichiometry N", "setting": "PdLCry^Y352A", "result": 2}]}, {"molecule": "B2", "values": [{"measurement": "stoichiometry N", "setting": "PdLCry^Y352D", "result": 2}]}]}
